Source: US20230357343A1
Where two headings read alike, the source gives them in different places.

What was measured:
[1] = molecular target: keyhole limpet hemocyanin; experiment: polyreactivity ELISA
[2] = molecular target: keyhole limpet hemocyanin; experiment: polyreactivity ELISA; remark: listed apart in the source

Bococizumab (antibody) gave a Binding to KLH (normalised A450) [1] of 47.1 and a Binding to KLH (normalised A450) [2] of 24.4.
